Data as given in patent EP1828247B1 (Crucell Holland B.V., dated 2011).

T1: recombinantly expressed purified soluble WNV E protein (strain 382-99), truncated form with Myc and His tags (West Nile virus strain 382-99, UniProt Q9Q6P4 291-696)
T1 construct: also called recombinant WNV-E protein; truncated E protein; not shown: Myc tag and His tag from pAdapt.myc.his
T1 sequence: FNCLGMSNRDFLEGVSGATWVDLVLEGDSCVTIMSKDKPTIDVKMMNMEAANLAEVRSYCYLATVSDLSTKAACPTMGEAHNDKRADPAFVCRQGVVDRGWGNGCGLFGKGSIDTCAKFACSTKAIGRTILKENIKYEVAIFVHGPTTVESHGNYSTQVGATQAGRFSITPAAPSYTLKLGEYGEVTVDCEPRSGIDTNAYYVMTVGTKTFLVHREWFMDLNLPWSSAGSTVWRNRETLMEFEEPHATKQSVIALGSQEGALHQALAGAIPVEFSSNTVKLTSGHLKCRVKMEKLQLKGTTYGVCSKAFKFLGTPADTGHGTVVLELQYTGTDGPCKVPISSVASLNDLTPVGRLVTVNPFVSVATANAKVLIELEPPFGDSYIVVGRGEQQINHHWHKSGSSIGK

B1: SC04-353 (scFv)
scFv: EVQLVQSGGGVVQPGRSLRLSCAASGFTFSNYAMHWVRQAPGKGLEWVAVISYDGGNKYYADSVKGRFTMSRDNSKNTLYLQMNSLRAEDTAVYYCARDFWSGYSMVDSYYYYMDVWGKGTTVTVSSGTGGSGGTGSGTGGSTETTLTQSPGTLSLSPGERATLSCRASQSVSNTFLAWYQQKPGQAPRLLIYGASSRATGIPDRFSGSGSGTDFTLTISRLEPEDFAAYYCQQYGSSLTFGPGTKVDIKR
B2: SC04-361 (scFv)
scFv: EVQLVQSGAEVKKPGESLKISCKASGFSFSTYWIGWVRQMPGKGLEWMGIIYPADSDTRYSPSFQGQVTISADKSISTAYLQWSSLKASDTAMYYCARLRGPYYDFWNGYRETHDAFNVWGQGTMVTVSSGTGGSGGTGSGTGGSTDVVMTQSPDSLAVSLGERATINCKSSQNILDNSDNKNFLAWYQQKPGQPPKLLIYWASARESGVPDRFSGSGSGTDFTLTISSLQAEDVALYYCQQYYNTPITFGQGTRLEIKR
B3: SC04-289 (scFv)
scFv: QMQLVQSGAEVKKPGESLRISCKGSGYSFTSNWITWVRQMPGKGLEWMGRIDPSDSYTNYSPSFQGHVTISADKSISTAYLQWSSLKASDTAMYYCARDVVGVGASDYYYYMDVWGKGTTVTVSSGTGGSGGTGSGTGGSTEIVLTQSPGTLSLSPGETATLSCRTSQSVSSSYLGWYQQKPGQAPRLLIYGASIRATGIPARFSGSGSGTEFTLTIDSLQSEDFAVYYCQQYNNWPPITFGQGTRLEIKR
B4: SC04-271 (scFv)
scFv: EVQLVETGAEVKKPGESLRISCKGSGYTFNNYWIGWVRQMPGKGLEWMGIIYPGDSDTRYSPSVQGHVTISADKSINTAYLQWSSLKASDTAVYYCARRPGYDYGFYYFDYWGQGTLVTVSSGTGGSGGTGSGTGGSTQSALTQPRSVSGSPGQSVTISCTGTSSDVGGYNYVSWYQHHPGKAPKLMIYDVSNRPLGVSNRFSGSKSGNTASLTISGLQAEDEADYYCSSYTSSSTYVFGTGTHLTVLS
B5: SC04-311 (scFv)
scFv: EVQLVQSGGGVVQPGRSLRLSCVASGFTFSKDAMHWVRQAPGKGLEWVAVISYDGSDKHYADSVKGRVTISRDNSRKTLYLRMDSLRAEDTALYYCARGYNSGHYFDYWGQGTLITVSSGTGGSGGTGSGTGGSTQSVLTQPPSVSAAPGQKVTISCSGTSSNIGDNYVSWYQHLPGTAPKLLIYDNNKRPSGIPDRFSGSKSGTSATLGVTGLQTGDEADYYCGTWDSSLTAVVFGGGTKLTVLG
B6: SC04-283 (scFv)
scFv: EVQLVQSGAEVKKSGESLKISCKGSGYTFNTYWIGWVRQMPGKGLEWMGIIYPGDSDTIYSPSFQGQVTISADKSISTAYLQWSSLKASDSAMYYCARLTFRRGYSGSDSFLPPGDFDYWGQGTLVTVSSGTGGSGGTGSGTGGSTDIQMTQSPSTLSASVGDRVTITCRASQSISSWLAWYQQKPGKAPNLLIYAASSLQSGVPSRFSGSGSGTDFTLTISSLQPDDSATYYCQQYNTYPLTFGGGTKVEIKR
B7: SC04-299 (scFv)
scFv: EVQLVETGGGVVQPGRSLRLSCAASGFTFSGYAMHWVRQAPGKGLDWVAVISYDGSEKYSADSVKGRFTISRDNSKNTLYLQMNSLRAEDTAVYYCAKESGGPIWYKYYGVDVWGQGTTVTVSSGTGGSGGTGSGTGGSTSYVLTQPPSLSAAPRQRVTISCSGSSSNIGNYGVNWYQQLPGKAPKLLIYYDDLLPSGVSDRFSGSKSGTSASLAISGLQSEDEGDYYCAAWDDTLSAWVFGGGTKLTVLG

Columns and labels:
[1] = target: T1, recombinantly expressed purified …; assay: phage antibody ELISA on coated recombinant soluble WNV E protein
[2] = target: T1, recombinantly expressed purified …; assay: as above; remark: listed apart in the source
[3] = target: T2, West Nile virus strain USA99b (strain 385-99), whole virus (West Nile virus strain 385-99 (USA99b)); assay: phage antibody ELISA on coated whole inactivated WNV
T2 construct: also called WN virus; WNV

Binder	binding result [1]	OD 492nm [2]	OD 492nm [3]
B1	no binding	0.099 OD 492nm	
B2	no binding	0.076 OD 492nm	
B3			0.759 OD 492nm
B4		0.608 OD 492nm	0.984 OD 492nm
B5			1.04 OD 492nm
B6		0.074 OD 492nm	1.21 OD 492nm
B7		0.072 OD 492nm	1.07 OD 492nm
